Source: article PMC12416549 (2024)
Where a chain is given by its changes, count along the chain named. Names and notes keep the numbering of the source.

Biological target: T1, TNFR1 (Homo sapiens, UniProt P19438)
T1 chain: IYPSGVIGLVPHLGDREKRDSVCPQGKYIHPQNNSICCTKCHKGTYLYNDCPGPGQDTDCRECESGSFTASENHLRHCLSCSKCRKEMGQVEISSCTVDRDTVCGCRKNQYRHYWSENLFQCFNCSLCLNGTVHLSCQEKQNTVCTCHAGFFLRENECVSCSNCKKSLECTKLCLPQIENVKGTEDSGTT
Assay: yeast display SC50

B1: K16M (designed binder)
chain: SMEEEVEKAAKEYEKMKKEAIEKHLEKLKAKDKEAAERFLKELEEAAKEYAKDEAKTMSEEEAKRRAKKYKEKVLLSELSEEEQKEIKEAEEKLVRTILKYVEEAAK
  apparent Kd (screen): 0.446 nM

B2: L28P (designed binder)
chain: B1 chain with M16K, L28P
  apparent Kd (screen): 13.8 nM

B3: R66H (designed binder)
chain: B1 chain with M16K, R66H
  apparent Kd (screen): 24.4 nM

B4: L25F (designed binder)
chain: B1 chain with M16K, L25F
  apparent Kd (screen): 0.49 nM

B5: K23Y (designed binder)
chain: B1 chain with M16K, K23Y
  apparent Kd (screen): 0.368 nM

B6: Y50S (designed binder)
chain: B1 chain with M16K, Y50S
  apparent Kd (screen): 5.31 nM

B7: R96M (designed binder)
chain: B1 chain with M16K, R96M
  apparent Kd (screen): 1.05 nM

B8: S80T (designed binder)
chain: B1 chain with M16K, S80T
  apparent Kd (screen): 1.27 nM

B9: R38F (designed binder)
chain: B1 chain with M16K, R38F
  apparent Kd (screen): 1.05 nM

B10: S59R (designed binder)
chain: B1 chain with M16K, S59R
  apparent Kd (screen): 1.05 nM

B11: E22I (designed binder)
chain: B1 chain with M16K, E22I
  apparent Kd (screen): 1.16 nM

B12: E3N (designed binder)
chain: B1 chain with E3N, M16K
  apparent Kd (screen): 2.73 nM

B13: L43N (designed binder)
chain: B1 chain with M16K, L43N
  apparent Kd (screen): 0.446 nM

B14: R38W (designed binder)
chain: B1 chain with M16K, R38W
  apparent Kd (screen): 0.446 nM

B15: S1C (designed binder)
chain: B1 chain with S1C, M16K
  apparent Kd (screen): 15.2 nM

B16: S1Y (designed binder)
chain: B1 chain with S1Y, M16K
  apparent Kd (screen): 3 nM

B17: E89R (designed binder)
chain: B1 chain with M16K, E89R
  apparent Kd (screen): 2.73 nM

B18: D53P (designed binder)
chain: B1 chain with M16K, D53P
  apparent Kd (screen): 0.869 nM

B19: E92T (designed binder)
chain: B1 chain with M16K, E92T
  apparent Kd (screen): 3.3 nM

B20: Y50M (designed binder)
chain: B1 chain with M16K, Y50M
  apparent Kd (screen): 0.446 nM

B21: A63K (designed binder)
chain: B1 chain with M16K, A63K
  apparent Kd (screen): 8.56 nM

B22: E42L (designed binder)
chain: B1 chain with M16K, E42L
  apparent Kd (screen): 7.07 nM

B23: L94R (designed binder)
chain: B1 chain with M16K, L94R
  apparent Kd (screen): 4.83 nM

B24: E12M (designed binder)
chain: B1 chain with E12M, M16K
  apparent Kd (screen): 0.539 nM

B25: S59D (designed binder)
chain: B1 chain with M16K, S59D
  apparent Kd (screen): 2.25 nM

B26: E78Q (designed binder)
chain: B1 chain with M16K, E78Q
  apparent Kd (screen): 0.718 nM

B27: K18S (designed binder)
chain: B1 chain with M16K, K18S
  apparent Kd (screen): 0.446 nM

B28: K107A (designed binder)
chain: B1 chain with M16K, K107A
  apparent Kd (screen): 1.54 nM

B29: V95I (designed binder)
chain: B1 chain with M16K, V95I
  apparent Kd (screen): 1.69 nM

B30: A9Y (designed binder)
chain: B1 chain with A9Y, M16K
  apparent Kd (screen): 0.718 nM

B31: A10S (designed binder)
chain: B1 chain with A10S, M16K
  apparent Kd (screen): 0.446 nM

B32: K48Y (designed binder)
chain: B1 chain with M16K, K48Y
  apparent Kd (screen): 0.653 nM

B33: K64H (designed binder)
chain: B1 chain with M16K, K64H
  apparent Kd (screen): 0.593 nM

B34: E45A (designed binder)
chain: B1 chain with M16K, E45A
  apparent Kd (screen): 2.05 nM

B35: K68Y (designed binder)
chain: B1 chain with M16K, K68Y
  apparent Kd (screen): 3.99 nM

B36: S1K (designed binder)
chain: B1 chain with S1K, M16K
  apparent Kd (screen): 0.446 nM

B37: K71W (designed binder)
chain: B1 chain with M16K, K71W
  apparent Kd (screen): 4.39 nM

B38: M58Y (designed binder)
chain: B1 chain with M16K, M58Y
  apparent Kd (screen): 24.4 nM

B39: R65F (designed binder)
chain: B1 chain with M16K, R65F
  apparent Kd (screen): 7.07 nM

B40: K31Q (designed binder)
chain: B1 chain with M16K, K31Q
  apparent Kd (screen): 1.16 nM

B41: A20W (designed binder)
chain: B1 chain with M16K, A20W
  apparent Kd (screen): 2.25 nM

B42: K93Y (designed binder)
chain: B1 chain with M16K, K93Y
  apparent Kd (screen): 2.25 nM

B43: K64R (designed binder)
chain: B1 chain with M16K, K64R
  apparent Kd (screen): 0.869 nM
